Test results as given in patent publication US20190307836A1 (Bicycle, published 2019).
Starred links: 1 amine or outer side, 2 acyl side, 3 side chain; linkers in the order of their positions; H or OH if unused. Positions of bridges follow the written chain, without caps; N, C: chain ends. Non-standard residues stand in square brackets, D forms with d. Chains are numbered I, II in the order given. No end group written: not given here. *: point of attachment. TATA = O=C(CC[*:1])N1CN(C(=O)CC[*:2])CN(C(=O)CC[*:3])C1; 1Nal = N[C@@H](Cc1cccc2ccccc12)C(=O)O; Hyp = O=C(O)[C@@H]1C[C@@H](O)CN1; hArg = N=C(N)NCCCC[C@H](N)C(=O)O; tBuAla = CC(C)(C)C[C@H](N)C(=O)O; Nle = CCCC[C@H](N)C(=O)O; Pent4ynoyl = C#CCCC(=O)*; Dap = NC[C@H](N)C(=O)O; βAla = NCCC(=O)O; Sar = CNCC(=O)O

Molecular target: CD137 expressed on cells (CHO cells expressing CD137); Jurkat cells of the Promega CD137 luciferase reporter … (UniProt Q07011 24-255, limits assumed)
Assay: cell-based or functional assay

Chain of CD137 expressed on cells (CHO cells expressing CD137); Jurkat cells of the Promega CD137 luciferase reporter … (Q07011 24-255 limits assumed): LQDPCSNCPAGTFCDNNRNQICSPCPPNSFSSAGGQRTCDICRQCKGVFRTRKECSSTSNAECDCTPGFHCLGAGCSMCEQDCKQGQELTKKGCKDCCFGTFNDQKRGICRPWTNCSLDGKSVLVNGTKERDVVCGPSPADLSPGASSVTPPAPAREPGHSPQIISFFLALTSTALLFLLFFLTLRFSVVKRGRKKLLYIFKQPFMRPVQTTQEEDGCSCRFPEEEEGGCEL

B1: heterotandem bicyclic peptide complex BCY11017 (peptide)
peptide 1: SDKCSAGWLTMCQXLHLCPSH
peptide 2: CXPKAPYCFADPYXCA
modifications: not fully specified; BCY8919: N-terminal acetyl; tBuAla1, Lys3 bearing the linker, D-Ala4, Nle12; Ci, Cii, Ciii on TATA scaffold; BCY10861: N-terminal acetyl; K(PYA)9 bearing the linker; Ci, Cii, Ciii on TATA scaffold
EC50 (nM), CD137 reporter assay, co-culture with RKO (PD-L1): 66 nM

B2: heterotandem bicyclic peptide complex BCY8939 (peptide)
peptide 1: CXDWCHWTFSHGHPC
peptide 2: ACIEEGQYCFADPYXC
modifications: BCY7732: N-terminal acetyl; Nle12; C-terminal Dap (diaminopropionic acid) bearing the linker; Ci, Cii, Ciii on TATA scaffold; BCY8938: N-terminal [PYA]-[B-Ala]-[Sar10]- (linker on PYA); HArg1; Ci, Cii, Ciii on TATA scaffold
Fold Induction over Background, CD137 reporter assay, co-culture with MC38 (mouse PD-L1): < 2 fold

B3: heterotandem bicyclic peptide complex BCY10567 (peptide)
peptide 1: {Pent4ynoyl-βAla}-[Sar][Sar][Sar][Sar][Sar][Sar][Sar][Sar][Sar][Sar]CP[1Nal][dD]CM[hArg]DWSTP[Hyp]WC
peptide 2: Ac-C[tBuAla]PK[dA]PYCFADPY[Nle]CA
modifications: linker I:11-I:15-I:25, II:1-II:8-II:15 via TATA; not fully specified (C-terminus, bridges); numbers in words are those of the source; also: chains joined by PEG12 linker, triazole from PYA, linker on chain 2 Lys4 side chain
EC50 (nM), CD137 reporter assay, co-culture with H1376 (Nectin4): 1.7 nM | Fold Induction over Background, CD137 reporter assay, co-culture with H1376 (Nectin4): 45 fold

B4: heterotandem bicyclic peptide complex BCY11379 (peptide)
peptide 1: SDKCSAGWLTMCQXLHLCPSH
peptide 2: CXPKAPYCFADPYXCA
modifications: not fully specified; BCY8919: N-terminal acetyl; tBuAla1, Lys3 bearing the linker, D-Ala4, Nle12; Ci, Cii, Ciii on TATA scaffold; BCY10861: N-terminal acetyl; K(PYA)9 bearing the linker; Ci, Cii, Ciii on TATA scaffold
EC50 (nM), CD137 reporter assay, co-culture with RKO (PD-L1): 68 nM

B5: heterotandem bicyclic peptide complex BCY11380 (peptide)
peptide 1: SDKCSAGWLTMCQXLHLCPSH
peptide 2: CXPEKPYCFADPYXCA
modifications: not fully specified; BCY8920: N-terminal acetyl; tBuAla1, D-Lys4 bearing the linker, Nle12; Ci, Cii, Ciii on TATA scaffold; BCY10861: N-terminal acetyl; K(PYA)9 bearing the linker; Ci, Cii, Ciii on TATA scaffold
EC50 (nM), CD137 reporter assay, co-culture with RKO (PD-L1): 34 nM

B6: heterotandem bicyclic peptide complex BCY10578 (peptide)
peptide 1: {Pent4ynoyl-βAla}-[Sar][Sar][Sar][Sar][Sar][Sar][Sar][Sar][Sar][Sar]CP[1Nal][dD]CM[hArg]DWSTP[Hyp]WC
peptide 2: Ac-C[tBuAla]PE[dA]PYCFADPY[Nle]C[Dap]
modifications: linker I:11-I:15-I:25, II:1-II:8-II:15 via TATA; not fully specified (C-terminus); numbers in words are those of the source; also: linker to a chain's N/C-terminus via CH2
EC50 (nM), CD137 reporter assay, co-culture with H1376 (Nectin4): 0.42 nM

B7: heterotandem bicyclic peptide complex BCY11376 (peptide)
peptide 1: SDKCSAGWLTMCQXLHLCPSH
peptide 2: CXPKAPYCFADPYXCA
modifications: not fully specified; BCY8919: N-terminal acetyl; tBuAla1, Lys3 bearing the linker, D-Ala4, Nle12; Ci, Cii, Ciii on TATA scaffold; BCY10861: N-terminal acetyl; K(PYA)9 bearing the linker; Ci, Cii, Ciii on TATA scaffold
EC50 (nM), CD137 reporter assay, co-culture with RKO (PD-L1): 127 nM

B8: heterotandem bicyclic peptide complex BCY10582 (peptide)
peptide 1: SDKCSAGWLTMCQXLHLC
peptide 2: CXPEAPYCFADPYXC
modifications: not fully specified; BCY9172: N-terminal acetyl; tBuAla1, D-Ala4, Nle12; C-terminal Dap (diaminopropionic acid) bearing the linker; Ci, Cii, Ciii on TATA scaffold; BCY10045: free N-terminus (NH2-); K(PYA)9 bearing the linker; Ci, Cii, Ciii on TATA scaffold
EC50 (nM), CD137 reporter assay, co-culture with RKO (PD-L1): 28 nM | Fold Induction over Background, CD137 reporter assay, co-culture with RKO (PD-L1): 4 fold

B9: heterotandem bicyclic peptide complex BCY11018 (peptide)
peptide 1: SDKCSAGWLTMCQXLHLCPSH
peptide 2: CXPEKPYCFADPYXCA
modifications: not fully specified; BCY8920: N-terminal acetyl; tBuAla1, D-Lys4 bearing the linker, Nle12; Ci, Cii, Ciii on TATA scaffold; BCY10861: N-terminal acetyl; K(PYA)9 bearing the linker; Ci, Cii, Ciii on TATA scaffold
EC50 (nM), CD137 reporter assay, co-culture with RKO (PD-L1): 27 nM

B10: heterotandem bicyclic peptide complex BCY10569 (peptide)
peptide 1: {Pent4ynoyl-βAla}-[Sar][Sar][Sar][Sar][Sar][Sar][Sar][Sar][Sar][Sar]CP[1Nal][dD]CM[hArg]DWSTP[Hyp]WC
peptide 2: Ac-C[tBuAla]PE[dK]PYCFADPY[Nle]CA
modifications: linker I:11-I:15-I:25, II:1-II:8-II:15 via TATA; not fully specified (C-terminus, bridges); numbers in words are those of the source; also: chains joined by PEG12 linker, triazole from PYA, linker on chain 2 D-Lys side chain
EC50 (nM), CD137 reporter assay, co-culture with H1376 (Nectin4): 1.2 nM | Fold Induction over Background, CD137 reporter assay, co-culture with H1376 (Nectin4): 52 fold

B11: heterotandem bicyclic peptide complex BCY10580 (peptide)
peptide 1: {Pent4ynoyl-βAla}-[Sar][Sar][Sar][Sar][Sar][Sar][Sar][Sar][Sar][Sar]SDKCSAGWLTMCQKLHLC
peptide 2: Ac-C[tBuAla]PE[dA]PYCFADPY[Nle]C[Dap]
modifications: linker I:14-I:22-I:28, II:1-II:8-II:15 via TATA; not fully specified (C-terminus); numbers in words are those of the source; also: linker to a chain's N/C-terminus via PEG12
EC50 (nM), CD137 reporter assay, co-culture with RKO (PD-L1): 28 nM | Fold Induction over Background, CD137 reporter assay, co-culture with RKO (PD-L1): 3 fold
